# Measurements as given in the NTF2 design screens of Basanta et al. (2020).
# Assay: protease stability score; higher = more stable; yeast display proteolysis, trypsin and chymotrypsin;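 also: log10 excess protease needed over predicted unfolded state with 0 meaning unfolded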
row,Sequence,protease stability score
1,DETAARDVEELLTHVKTNNPENVVKLADPNAKAKIGDQTVKGREELTKQMTKELRHQRMSVEIKDYKVHGNKVVIDAEFTYNHNGRPQKKDVEIYVVFRGEKIEKFVWRTDG,0.627
2,DETAERLEHQLKSALETGDEESAKKQFDPNVKFQYGDKVIHGMENAIERIVKRLKELHVSVELKSMHVEGNNIQADLVATENHNGQPRTRRFTLHVTWRNGRIQEIRQQDTK,1.31
3,DETAISVAKTMFEAMESNDPDEVRRQADPNATFVIGDKNYHGMETYAKEVKKRNDKIDVQLQDMDITDQGEDADIKQVAVFTHDGRPKKVVIHWDISVRNGRIKFVHADQRG,-0.4
4,DETAKKHFEELMKVWKHGDFRRAQELLDPNVRVVIGDQQFHGREDVAKKIAEHLHRMEVEIKDYRVKNDGEKIHIEVDAVFERNGRPERRRYVAVYRVHNGRFKEMSQQEDK,1.05
5,DETAKKNVELYVQAFEDNDERKLNHMMDPNAHFRIGDRNVHGRDQVKDEVEKRRKEQSVKFKDVKVDVQGDKATIEIRWVVDKNGEPTEDVHKVDLKIHNGRAKYMQWDSVR,-0.07
6,DETALRIAEDWFRALQNGNPERMQENVDPNARVQIGDKELHGREQIHELAQKIKEEMRIEVNITHVDVHGEHLRLEFDIRVDINGKPVTNHNTAEFNVENGSIKHISFDIDPRQLNKMQK,0.746
7,DETAMEVAERFLENINNGNPEEATKQFDPNARFIVGDKRLTGQEQVKSEIEDQKKHIDVNYDVKRVEIDGDKALLELDVQNEHNGRPRTDSAVITMEAHNGKITHMQRDHDG,-0.594
8,DETAQDLVTTLIEAWKTNDPDSVANLMDPNATVKIGDKSVHGKKQLEEMLKKLRDEMTIDIKRVDVKVNNGDAKVNARATFTHNGKPDSRTMSAEVEWNGDKVKEFRVHWEQ,1
9,DETAQEQAKKLFQARQTNDPDKVNNLLDENARVNIGDTSVQGREDASKEVERQHRESHQSVELKEVKVDGDHVELHYVLTKQENGKPDSNKASMNVQIHNGKAQDVQIQTSK,-0.35
10,DETAQKVANQFFEALKNGDPDQVRRLLDKNATVRIGEWQVHGREQASKDVHQNKQHAEYDWRIRSVKVTGNKVDIDAEVTYQHNGEPSRRQMVVNVVVTNGKIQDIHVRDEQ,1.43
11,DETAQNLIKELNRAWNENNENQVAELMDPNAKLQIGNKVLTGRKQRMEEIRSQTHSMRLDYKYEDVKAKNGKVTANLRYVADVNGRPVDVTVSVKADVHNGVIVRLEVRLPPDVEEELKR,0.219
12,DETARDRLEELWRTMERNDPDKLTRQADKDVEVHVGDKELHGMKQVATTLAHEMREMDVEIEIREVNVQGNNVEVDMIFRAKVNGKPIHNKASFVVTFNNGKAESIELRVPPEFQKQKRK,-0.222
13,DETARHRLEEMWTNIQRNNPSEVAKLADKDVRVRVGDKEIHGREQLNHHIKRFNDEIRMNVDHISIKVDGNEADIHIRAEFEVNGTPFEMTIDVKISVHNGKIKEIDRQVSEEEKRRLKK,0.806
14,DETASRAAERYMKALQTGDPDEVVKQIDPNVHVRVGDKEVQGKEQFRKKQERDKKQARYHIKHVTFNVEGDKVRVDVIFRKHHNGQPRHDRMEQRMSVRGDKITHQENHKTG,0.02
15,DETATEAAQRMMDNWRTNSPEDYAKLADKNVEVRVGDKTYTGRDELRSRLQRKREEQHIDLRTYHFRVNGDEVTVRARYIENHNGRPQHKVVRFVFRLHNGRVKEIERHDDS,0.22
16,DETAVEIARDFLQAITNNNPQEAERLADPNVRWTVGDKSYSGMNEFSKIIKDLNDRSRFEYTDVKLDVTNGRARIELRMSRTVNGKPQSFDMVMNVVVHNGRIKHVHVHNKQ,1.4
17,DETAVHAARRYLHAVTEGDPDKVNEQVDPNAKLTYGDKEVHGSSQVKEEVETQNRHSRIQYDSVTFDHQGDKVRADIDMKQDSNGRPKRRKMVVDFRAHNGKLQHVNAQDDN,-0.224
18,DETAVKVIHKVVEAINTNNPKQVMKNMDKDVHITVGDKEYEGKEEFAKQVERDLREQRVDIDIKRLNVHNGKVHVKFTAQQQINGKPISYKATARAEVQNGKVQHMEIRVPEELQRKRES,-0.272
19,DETAVRVFRKIEDAYQKGDPDKITNLLDENVEMHVGDKRVHGRETMAEHLKKQLDEIRQKIKSVTLHDKGDTIRIDVLMVEEHNGQPRESRYHVHAKIHNGKMKEREQTSVQ,-0.095
20,DETAVTVLTEIVKAQRQGDHNRFNELVDPNAKIRVGDKRVTGREQLTHEFHKNLKHMRVHQKVHDMKDHNGRVQATAQRRSNHNGKPKEVEVQFQATARNGRLTQMEMHSSG,-0.643
21,DETDKAHEFMRKMKRALDQNDPDKLMDLFDPNAKVKVGEKKIHGRERISNDLQRHAHNADHIHMEIQDMKVSGDKINITFRVTSVVNGNTRSNRVLIRARIDNGHIKAVDVQQK,0.855
22,DETDKAQKQFEHYERIAHTGDPDEMQRQADENARVEYGDKEVRGRKDVKKWAKDIKDTVDSVEFDIKSFEVQGDKITINVNIVYRSDGRQQSMEVNMVFDVRGDDIQIRSMKFR,0.434
23,DETDLEKFATIVQQNNPHEFKKLLPEDAKMTYGDKTVHGREEIQRILENLVKDVDRLRIKHYKISGDKIEIDLVVNVNGRNIRFSLRAKMHNGQIKFFEIEVRDDDVKHELEKMLS,0.069
24,DETDLERWARTFIEVFQTGDENRFRKMVDPNARLNVGEKNVHGKEEMAKAAKKLRDKVDHMHVRDLQINPPTIEIHIDFHHNGQKRSQVYYVEMHNGRVTEIHVQTS,1.05
25,DETDLLRKLIHHLKTAVDEGDPDKYVKNFDPNAKIDVGDKQWHGHDEIRKKMEDLVRQADHVRLTIDHMQVQGDKFNIHATIKYDNNGEDVERKFVLTATKKGDKAKAEFVTEQ,0.895

row,Sequence,protease stability score
1,DETDQVETLLKRFKEAVDHGDKHQARHLFRDDVRIKYGDKEIHGRDNLAHWIVDRARRADHVDFTIRQFDVRNGRVSVDVEVRYDVNGKHDHKRYTLRADLRNGRATAVTIEVR,0.344
2,DETDTAKDFAEELRTIFESNDFKRYQQLFDPNAKIHVGEKRLHGDRRVNNLIKEIFDRADHLHFDLREFEVKGEKVRIRYVEKQKINGKDETRDVVMVAVKQGDKMYITEVRHQ,1.13
3,DETEAKKNVEVVEQNDWDTFEDQVDENAKMKVGDKEIHGREQFSEFADNMKKNADHVEVKSVDRRGDEINIEMVVSVNGKRVTYVVQFVVNNGKIHDVQFDARSEDDERFLKEVQS,0.619
4,DETEDKKAQQLAKAINDGDEHDVRKMMDKDVKVDVGDKQLHGREQAAKWMSRHRREQRRTIEVTDVKMHGEKAELDANLRVDVNGQPRTHRVRIIVSITNGRLQHLEIHMDPRFEQSVQS,-0.25
5,DETEEVQKLVHRWRQAMEDGNPDDLRKNMDEDAEMRYGDKSWHGRENIAQNLHKERQRADSISITIEDMDHENGKAVVHLNITFTVNGRKETKRYDLDVEVNGDKLKIKQIQQE,0.247
6,DETEHAKRLAEEFVRNVETGDESRLVELADPNAKFEVGDTTVHGMEDYAHNMHKRRNEADHFDFKVKSVHVSNGNIRVDIDYRVNHNGKVEKQRMVIYMTKHGDKYRIKKIEVS,-0.082
7,DETEIRLFHQFLRAIETNDEERAQQLADEDARYRYGNKEIDGMTQFQEDMDDKHKEARYSYSIDSVHDEPNRVVVEARAMVKINGKPTTYQVELHAHFHNGRMKKFTASVPEETLQSIRS,0.054
8,DETEKADQMVHDLEEAIKTGDPDEISNQADPNVSFHYGDKTFHGREKLAEWFLELQKRVDHMHLDIKDIEVQGDKATITMQMVLDKNGDDERKDIRVEAQYHNGRLTISFAEAR,2.15
9,DETEKAKRFFDEWLKALHRGDPDEVKKLADPNVRFEVGDKEIHGRSNMAKHVTDLRKRADSFSASIDSIDIKGEKVVIDAKLTYNHNGRKTHNKVEFDAKVHNGKIKLKEIIVR,-0.257
10,DETEKAKTFMDELRKVLQTGDEEQISRNMDPNARLNVGDKTIHGRERLAKEMSDEVKRADHIDIKVKSISVHNGKVRVDFFFTLEYNGQHRRTRRIMHADISDGQIKIKQIHDN,1.4
11,DETELRKMQEVQEHNDPDEWKKQADKDVRLKVGNKRLHGREDVHRYLKTHRDQADHIRYKSFDFDGDKADITFHAVVNGRTFEANQEIRIHNGRIQEVNIHYTDDQVQRELEELFG,-0.195
12,DETEQAKKLLNDIENIFRTGDPKQLEKLAPPDVDVRVGDKEVHGKEQVVEELQRRQESFDHIEFNLHRVSVSGDKYRLDYEVRFDHNGRTETYRVVVVYVNNNGRLQDKSMTIK,0.684
13,DETETMEQMIQDLHRALQQGDHETVKELIPPDAEMQIGDKTWHGKEQVARHLVEHAQTADHIDIDIKSIKIEGNKLVVNLKVVYDRNGHRETQTYELMVDVNNGEFRIVEQRQP,0.921
14,DETEVAHRFLNQERRNWKTGNRQSFENMFRDNVRAQYGDKTVTGREDMKRWLDRILKEVDHVRIEIKDLKREPGRVSLDVVVVFEHNGHKDKKRYVIDAVASGDKMIIDQVQDK,0.165
15,DETEWREFAEEFIRLFQQGDEDRLRKLIDKNAKIRYGDREVDGRDSIAKQIRDNREQIDRIDLVDMKVRGEHITITIDVDHNGQRRRIVIHINVHNGHIKNVEVDSG,1.02
16,DETHDAHRKAEEIITALRTGDPKQAESLVPENVKIDVGDKTIHGKEQYSKEFKKFTDRVDKVEVRIKHVHVQGDKIKIRMEARENVDGQDKRYQFVLIFDRHNGKDQAVSIKVD,1.02
17,DETHKAKEMLKEFHTAVSKGDEDRYSNLLDENVHITYGDKTVHGREEAVKLFTELQERADHVDVDVVSVDVKGETVKARIRINFVYDGREDRHEFTLIAIVDNGRFVIKSIIQK,1.22
18,DETHLKLLEHFFKQWMTGNQQELRSLADPNVEYVYGEHRVRGREQMAKDLVRELHEMTISMRSVTSDIRGDQAVVTVNFQQDKNGEPDEVNVKMRAEVHNGRIKSMNAKFHQ,-0.287
19,DETIHDQAQRFFRDVQTGDEENIHKYFDPNARFVVGDKDLHGMSEVAEDLARKWNEWRVDVRDYRIKVHNGRIEVHIDARFDHDGQPEDRSEVVVYTMKNGQVQMVEFHKQG,0.464
20,DETKAAQVAAELISAIVHGDTDRALELADKDVRADIGENKVHGREEMHKMVEQYDKSVDHASVKTYKVSGNSVKVNVEVTHNGRKRTVDFTAEAHNGKAKQVTAEVK,-0.768
21,DETKDTEAAERYLENFKTGDPKKLANQFDKNAKVVVGDNEIHGREELQRNNESFVKRVDHIDLQTVDMRGDKFRYQVVIKINGNSVIVNYSIVMHNGKFERNHVDPKDMDRLKQ,0.363
22,DETKLMTELAEKLNRVIQKNNPDEARKLMDPNARQQVGDTRYHGNEQLAEYMKDMHERYDHVEVDVKDVNVSGDHATLEAKVHFRHNGKNTTINQNIVATIHNGKVVLKQVTSK,0.465
23,DETKQAERVAETEKRIWERGDPDKLNEMFDPNVRIDVGDKEVNGREKLKEYIERILTQVDHVRLNFTSISVHNGSVELKYTLVREDNGRRRRDTFVIHMELHNGQARVTSVRRG,0.405
24,DETKQQELIHRLLEALETGNPDEYIKNLDKDVRVVVGDTEVHGREDLKKLFERLTHQIDHQHIKDYKVSNGQADVKLVVVNNGQERRLTIKIVVRNGHVKEVVWNDR,1.77
25,DETKVKKLAETVIKILFSGDKKTAKDLLKPNVKFEALDVELHGPDQVRKYYDKVKKHGAEMHVQRNEVKGNTAEVEYVLKVGGTEIKVKATLYVKDEKVDKAEVNNSEEYKKYVQKG,-0.018
